Series [1] is described as follows: folding stability dG unfold from chymotrypsin proteolysis; higher = more stable. The essentials:
(§1)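 Sequencing followed digestion of designed mini-proteins with trypsin and chymotrypsin, each at 11 concentrations in threefold dilutions together with a no-protease condition. The mini-proteins were under 80 residues, had no cysteine, sat in a PA-tagged cDNA display construct, and were kept only if AlphaFold2 dimer inter-PAE was above 15. From the counts, Bayesian fitting gave K50, and unfolding free energy was derived against a sequence-predicted unfolded-state K50 and a shared folded-state K50, per protease or combined.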

Series [2] can be described thus: folding stability dG unfold from trypsin proteolysis; higher = more stable. The method in brief: as §1
A short description of series [3]: folding stability dG unfold (combined trypsin and chymotrypsin); higher = more stable. The essentials: as §1

± gives the half width of the 95% confidence interval.

Consider “SAGGSAGGSAGGEEPVTFMVRIPIRRRDPDGNPEPVAEIDINVTMPPEDAERIIKELIKSAGGSAGGSAGGS [r10_574_TrROS]”, for which the results for the “folding stability dG unfold” value in series [1], in series [2] and in series [3] were -0.547 ± 0.76 kcal/mol, -0.245 ± 0.34 kcal/mol and -0.326 ± 0.22 kcal/mol, respectively.
As for “SAGGSAGGSAGGEEVTIVVKSKEDIEALLPPGWKVTKIEEIYVDKETGEKYYKITVKKESAGGSAGGSAGGS [r10_256_TrROS_Hall]”, the “folding stability dG unfold” value in series [1] was determined as 3.88 ± 0.062 kcal/mol; in series [2] it was 4.23 ± 0.17 kcal/mol; in series [3] it was 4.06 ± 0.12 kcal/mol.
As for “SAGGSAGGSAGGEIKGKKFKIVKIVEVRYDKETKEFYVRIYIEDTNEIITVRLEDLPEELSAGGSAGGSAGG [r7_304_TrROS_Hall]”, the entries for the “folding stability dG unfold” value in series [1], in series [2] and in series [3] were 2.29 ± 0.025 kcal/mol, 1.83 ± 0.077 kcal/mol and 2.25 ± 0.18 kcal/mol, respectively.
Consider “SAGGSAGGSAGGEIKSGDKVVLVFNEDGKGYKAYYEEELEKLLKEDPKIKKVLVVDVPAESAGGSAGGSAGG [r7_118_TrMRF]”, for which the entries for the “folding stability dG unfold” value in series [1], in series [2] and in series [3] were -1.04 ± 0.77 kcal/mol, -0.173 ± 0.064 kcal/mol and -0.429 ± 0.22 kcal/mol, respectively.
With “SAGGSAGGSAGGEIPIKIRPYDPKDGEPKDEHPIPFDTPNGNSLDEIAKQLPPDHFEVDISAGGSAGGSAGG [r17_339_TrROS]”, the “folding stability dG unfold” value in series [1] was 1.11 ± 0.018 kcal/mol; in series [2] it was 0.382 ± 0.067 kcal/mol; in series [3], 0.875 ± 0.059 kcal/mol.
As for “SAGGSAGGSAGGEKKKIAKKIKEELEKKGIKVKKVETSEDYIYITFEDGSKKKIKIDKGSAGGSAGGSAGGS [r10_169_TrMRF]”, the entries for the “folding stability dG unfold” value in series [1], in series [2] and in series [3] were 1.6 ± 0.18 kcal/mol, 2.1 ± 0.16 kcal/mol and 1.74 ± 0.2 kcal/mol, respectively.
“SAGGSAGGSAGGELKAKFETFPSPYGKVILAEAEFEEPNLLAAIVIDEDGVPHLLVVSPDSAGGSAGGSAGG [r7_187_TrMRF]”: the figures for the “folding stability dG unfold” value in series [1], in series [2] and in series [3] were 0.858 ± 0.076 kcal/mol, 1.13 ± 0.064 kcal/mol and 0.952 ± 0.12 kcal/mol, respectively.
Regarding “SAGGSAGGSAGGELVLKIKVKPGEKVKLKLKLFDKNGKLVEEFEVEVEVVKEGDTLYIRLSAGGSAGGSAGG [r7_63_TrROS_Hall]”, the “folding stability dG unfold” value was found to be 4.03 ± 0.052 kcal/mol in series [1], 2.69 ± 0.064 kcal/mol in series [2] and 3.67 ± 0.11 kcal/mol in series [3].
On the same counts, the results for “SAGGSAGGSAGGENDWIPIRMEMTFKLPNGVKITIKMEMWVQPDGDILGMRIHDIEIEVPSAGGSAGGSAGG [r7_356_TrROS]” are 4.75 ± 0.12 kcal/mol, 3.6 ± 0.21 kcal/mol and 4.54 ± 0.21 kcal/mol.
“SAGGSAGGSAGGENPEYKPKLLVLVKLEVNGEYYYREFETLEELENYNDPNLKVVAVADLSAGGSAGGSAGG [r7_793_TrMRF]”: the “folding stability dG unfold” value in series [1] came to 0.653 ± 0.11 kcal/mol; in series [2], 1.27 ± 0.033 kcal/mol; in series [3] it was 1.02 ± 0.083 kcal/mol.
The matching figures for “SAGGSAGGSAGGEPELVFKVRVRTKDGRELEIEVSAEDLEKLLEALPDIEEVEIEEVEPSAGGSAGGSAGGS [r10_437_TrROS_Hall]”: 2.68 ± 0.071 kcal/mol, 2.39 ± 0.087 kcal/mol and 2.6 ± 0.14 kcal/mol.
On the same counts, the results for “SAGGSAGGSAGGFRIKITEIWPISMEMRKPDPENGKWKEQPMTIMIIRIKIENLPPGAKISAGGSAGGSAGG [r17_530_TrROS]” are 3.9 ± 0.079 kcal/mol, 2.54 ± 0.048 kcal/mol and 3.41 ± 0.1 kcal/mol.
Consider “SAGGSAGGSAGGFTVTVVEPVDPNDPAFKKLMEERGLPPEEVVATKTLTADSEEEIAALLSAGGSAGGSAGG [r11_83_JUSTAS]”, for which the “folding stability dG unfold” value was found to be 0.219 ± 0.15 kcal/mol in series [1], 0.283 ± 0.099 kcal/mol in series [2] and 0.238 ± 0.12 kcal/mol in series [3].
In the case of “SAGGSAGGSAGGGELKELLKKNPGPLLLERPENTVSLILYDPKTGTYTVLTFSPTEPIPLSAGGSAGGSAGG [r7_84_JUSTAS]”, the “folding stability dG unfold” value amounted to 1.69 ± 0.11 kcal/mol in series [1], 1.27 ± 0.056 kcal/mol in series [2] and 1.52 ± 0.14 kcal/mol in series [3].
As for “SAGGSAGGSAGGGITIKGPGSVTVTVPASDVASISVDPATGTVTVEIPATGTTLTVPPASAGGSAGGSAGGS [r10_200_JUSTAS]”, the “folding stability dG unfold” value was found to be 0.238 ± 0.033 kcal/mol in series [1], 1.03 ± 0.037 kcal/mol in series [2] and 0.604 ± 0.07 kcal/mol in series [3].
On the same counts, the results for “SAGGSAGGSAGGGKLRIKLYHPETGKISEIEVEVPDKPLEEVLEELEKELGVEVVDASLESAGGSAGGSAGG [r7_590_TrMRF]” are 1.68 ± 0.045 kcal/mol, 0.941 ± 0.054 kcal/mol and 1.44 ± 0.14 kcal/mol.
On to “SAGGSAGGSAGGGKTVVYRFPASLTPEQAVDEITAKVPPNYPVIVEYHPESGTFVAYVPSAGGSAGGSAGGS [r10_163_TrMRF]”, for which the figures for the “folding stability dG unfold” value in series [1], in series [2] and in series [3] were 0.743 ± 0.29 kcal/mol, 0.725 ± 0.1 kcal/mol and 0.666 ± 0.15 kcal/mol, respectively.
On to “SAGGSAGGSAGGGLEEIKEAIKKLPENVKEITIKLKDGSTIKIRVEKDKDGKYKITIEPSAGGSAGGSAGGS [r10_1017_TrROS_Hall]”, for which the “folding stability dG unfold” value in series [1] is 2.68 ± 0.15 kcal/mol; in series [2], 2.41 ± 0.3 kcal/mol; in series [3], 2.5 ± 0.22 kcal/mol.

Values taken from the supplement of paper PMC12764529.
